For one molecule, Kd, koff and kon results are on record in patent KR20220013302A (dated 2022).

In assay [1] the target is T1, SARS-CoV-2 바이러스 표면 단백질 (RBD) (SARS-CoV-2, UniProt P0DTC2 319-541). Nature of the assay: BLI (Octet), Full IgG.
The target in assay [2] is T1, SARS-CoV-2 바이러스 표면 단백질 (RBD). Nature of the assay: BLI (Octet), Full IgG culture supernatant.

B1: No. 32 항체 (Full IgG) (antibody, V domains shown)
VH: EVQLVQSGGGLIQPGGSLRLSCAASEFIVSSNYMTWVRQAPGKGLEWVSIIYPGGSTYYADSVKGRFTISRDNSKNTLYLRMNSLRAEDTAVYYCARDLPLTGTTLDYWGQGTLVTVSS
VL: not shown
The term Kd denotes the equilibrium constant for the complex coming apart. What is called koff is the first-order rate constant of dissociation. One may read the kon as the rate constant with which the complex forms. Low values mean slow association, high ones fast association. In assay [1], B1 returned a Kd of 0.305 nM, a koff of 0.000193 s⁻¹ and a kon of 633000 M⁻¹ s⁻¹. Besides, in assay [2], the affinity, expressed as Kd, was 0.147 nM.
